B1: CUP N-terminal fragment: CUP residues 1–402 (protein, UniProt Q9VMA3 1-402, looked up, fragment)
chain: MQMAEAEQENGAGALKIATNAGATDRPAHQQLPLPVEDQQDEVLTPAEKGKFEYPPPPPPPTPVQAPLATKATALNASQEHDDDEANSEKWEDPCAPPPPPPLPTSAFLATGLGYLKLPAFKLKDALEKAITKLEANKRTLKASPESSRSIKNKNVVALEMLPRRSNPETIGDGSMLASTSTAVMLQTKKPAVIVEMERRCKIINLLAKQNQILESISGEAIPMHGPSKHLHEDEGLTLQVLSARASTPYTQPSSMLSCTAVSCDLEHDSPRKQVASKEAVPEQQSSQVQQKRPPSTGIHKPGSLRAPKAVRPTTAPVVSSKPVKSYTRSRLMDIRNGMFNALMHRSKESFVMPRIATCDDIELEGRLRRMNIWRTSDGTRFRTRSTTANLNMNNNNNNECM
modifications: HA tag
B2: CUP C+NC peptide fused C-terminally to GB1 (domain or fragment, Drosophila melanogaster)
chain: STGIHKPGSLRAPKAVRPTTAPVVSSKPVKSYTRSRLMDIRNGMFNALMHRSKESFVMPRIATCDDIELEGRLRRMNIWRTSDGTRFRTRSTTANLNMNNNNNNECMPAFFKNKNKPNLISDESIIQSQP
notes: CUP, Drosophila melanogaster, canonical and non-canonical 4E-BMs; source: E. coli BL21 Star (DE3), purified (amylose, HRV3C cleavage, SEC); not shown: MBP, N-terminal, cleaved; GB1, C-terminal, kept
B3: eIF4G peptide (residues 578–650) fused C-terminally to GB1 (domain or fragment, Drosophila melanogaster, UniProt O61380 578-650, looked up)
chain: PETTLNDKQDSTDLKVKVSAKISSIINYNEGQWSPNNPSGKKQYDREQLLQLREVKASRIQPEVKNVSILPQP
notes: eIF4G, Drosophila melanogaster, residues 578–650 (methods and legends); source: E. coli BL21 Star (DE3), purified (amylose, TEV cleavage, anion exchange, SEC); not shown: MBP, N-terminal, cleaved; GB1, C-terminal, kept
B4: Thor: Dm Thor full length (1–117), Q9XZ56, ortholog of 4E-BP1–3 (protein)
chain: MSASPTARQAITQALPMITRKVVISDPIQMPEVYSSTPGGTLYSTTPGGTKLIYERAFMKNLRGSPLSQTPPSNVPSCLLRGTPRTPFRKCVPVPTELIKQTKSLKIEDQEQFQLDL
modifications: left off: GFP, end not stated, kept

Assays:
[1] = biological target: T1, eIF4E (residues 69–248), purified (Drosophila melanogaster, UniProt P48598-2 69-248); test: ITC; VP-ITC, 20 °C; eIF4E (69–248, WT or mutant, 1–20 μM) in the cell, tenfold concentrated GB1-stabilized peptides titrated in; 20 mM Na-phosphate pH 7.0, 150 mM NaCl; one-site binding model; conditions: both partners purified
T1 construct: eIF4E, Drosophila melanogaster, residues 69–248; the methods say the tag was cleaved with HRV3C; also called truncated eIF4E; eIF4E trunc; not shown: His6, N-terminal, cleaved
T1 sequence (looked up): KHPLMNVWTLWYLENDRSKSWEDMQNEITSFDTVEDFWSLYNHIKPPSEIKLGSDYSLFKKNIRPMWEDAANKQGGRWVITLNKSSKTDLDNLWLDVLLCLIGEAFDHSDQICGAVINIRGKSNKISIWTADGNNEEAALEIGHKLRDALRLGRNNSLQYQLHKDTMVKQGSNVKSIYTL

[2] = biological target: T2, eIF4E (residues 69–248) II-AA, purified (Drosophila melanogaster, UniProt P48598-2 69-248, Ile96 to Ala (II-AA) | Ile112 to Ala (II-AA)); test: as above; conditions: both partners purified
T2 construct: eIF4E, Drosophila melanogaster, residues 69–248; also called eIF4E (II-AA); not shown: His6, N-terminal, cleaved
T2 sequence (looked up): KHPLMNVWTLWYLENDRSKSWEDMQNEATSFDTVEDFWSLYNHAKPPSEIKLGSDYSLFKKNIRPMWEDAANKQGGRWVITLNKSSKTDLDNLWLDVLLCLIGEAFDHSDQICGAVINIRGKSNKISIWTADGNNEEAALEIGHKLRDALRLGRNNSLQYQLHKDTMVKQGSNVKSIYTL

[3] = biological target: T3, SHN-eIF4E (full length, WT) (Drosophila melanogaster, UniProt P48598-2 1-248); test: pull-down; 'kinetic assay': 1 μM purified SHN-eIF4E–GST-eIF4G complex prebound to Strep-Tactin beads, challenged with 5 μM (CUP, 4E-T) or 10 μM (Thor, eIF4G) competitor for the indicated times; 4 °C; conditions: both partners purified
T3 construct: eIF4E, Drosophila melanogaster; also called SHN-tagged eIF4E; SNH-tagged eIF4E; not shown: Strep-NusA-His (SHN), N-terminal, kept
T3 sequence (looked up): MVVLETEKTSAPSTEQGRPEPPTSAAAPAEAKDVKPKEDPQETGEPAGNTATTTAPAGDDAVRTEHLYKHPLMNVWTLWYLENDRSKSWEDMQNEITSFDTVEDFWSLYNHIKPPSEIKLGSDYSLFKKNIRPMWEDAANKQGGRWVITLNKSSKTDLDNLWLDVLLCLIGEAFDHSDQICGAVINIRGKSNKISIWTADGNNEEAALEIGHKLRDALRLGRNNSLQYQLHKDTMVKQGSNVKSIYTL

[4] = system: firefly luciferase (F-Luc) reporter in S2 cells; test: Translation repression assay, F-Luc reporter in S2 cells; assay type: cell-based, Drosophila melanogaster; conditions: coexpression (HA-CUP 1–402 0.05–0.2 μg, HA-Thor 0.1–0.5 μg plasmid; mutants at highest), 3 days, F-Luc activity normalized to mRNA, three independent experiments
Procedure: S2 cells were transfected in 6-well plates using Effectene transfection reagent (Qiagen) according to the manufacturers protocol. The transfection mixtures contained: 0.1 μg of F-Luc reporter plasmid (F-Luc-V5), 0.3 μg of control RNA reporter, and increasing amounts of plasmids expressing HA-CUP (fragment 1–402; 0.05–0.2 μg) and HA-Thor (full length, 0.1–0.5 μg). The plasmids expressing the corresponding mutants or the HA peptide control were transfected at the highest concentration. In all the experiments, the cells were collected three days after transfection. The F-Luc activity was measured using the Dual-Luciferase reporter assay system (Promega). The northern blotting was performed as previously described. The F-Luc mRNA levels were determined by northern blotting and were normalized to those of the control RNA. The normalized F-Luc mRNA levels were then used to normalize the F-Luc activity, to obtain translation efficiencies.

endogenous eIF4E = test: Coimmunoprecipitation / m7GTP pull-down with endogenous eIF4E in S2 cell lysates; assay type: cell-based, Drosophila melanogaster; conditions: western blot
Procedure: (§1) The coimmunoprecipitations assays were performed as previously described. For the pull downs using m^7GTP beads, 25 μl of immobilized γ-aminophenyl-m^7GTP (C10-spacer—Jena Bioscience) beads was added to the cell lysates and the mixtures were rotated for 1 h at 4 °C. The beads were washed three times with NET buffer (50 mM Tris (pH 7.4), 150 mM NaCl, 1 mM EDTA and 0.1% Triton X-100). The bound proteins were eluted with 2 × SDS–polyacrylamide gel electrophoresis (SDS–PAGE) sample buffer and analyzed by western blotting (WB). All of the WB experiments were developed with the ECL western blotting detection system (GE Healthcare) as recommended by the manufacturer. The antibodies used in this study are listed in Supplementary Table 2.
Thor and 4E-T) or HA-eIF4G and endogenous eIF4E in S2 cell lysates. The proteins were immunoprecipitated using a polyclonal anti-eIF4E antibody (α-4E). The pre-immune (Pre-I) serum and an HA-tagged version of MBP served as negative controls. The inputs (1%) and immunoprecipitates (10%) were analyzed by western blotting using anti-HA and anti-eIF4E antibodies. (b,c) The interaction of HA-tagged full length 4E-BPs (CUP, Thor and 4E-T) and eIF4G with endogenous eIF4E was analyzed by coimmunoprecipitation using anti-HA antibodies (b) or by pull-down using m7GTP-Sepharose beads (c). HA-MBP served as a negative control. The inputs (10%) and immunoprecipitates (30%) were analyzed by western blotting using anti-HA and anti-eIF4E antibodies. (d) Western blot showing the interaction of HA-Thor (full-length either wild-type or mutants) with endogenous eIF4E in S2 cells. The proteins were immunoprecipitated using anti-HA antibodies and analyzed as described in (b,c). (e) Western blot showing the interaction of HA-4E-T (residues 1–511, wild-type or mutants) with endogenous eIF4E. The proteins were immunoprecipitated using anti-HA antibodies and analyzed as described in (b,c). The size markers (kDa) are shown to the right of each panel. Mutants are described in Supplementary Table 1.

[5] = system: eIF4E II-AA (lateral surface mutant); test: Coimmunoprecipitation with HA-eIF4E II-AA in S2 cells; assay type: cell-based, Drosophila melanogaster; conditions: HA-eIF4E II-AA vs WT, western blot
Procedure: as §1

[6] = system: eIF4E II-AA mutant (full length); test: GST/MBP pull-down of full-length eIF4E II-AA mutant, coexpressed in E. coli; assay type: binding, Drosophila melanogaster; conditions: recombinant CUP (311–440), Thor (full length), 4E-T (1–58) or eIF4G (578–650), WT or mutant, SDS–PAGE
Procedure: For the pull-down assays shown in Fig. 3 and Supplementary Fig. 6a, the full-length His6- or SHN-tagged eIF4E (WT or II-AA mutant) was coexpressed with GST or MBP-tagged protein fragments, including CUP (residues 311–440), Thor (full length), 4E-T (residues 1–58) or eIF4G (residues 578–650) in E. coli BL21 (DE3) STAR cells in autoinducing medium[44] overnight at 20 °C. The cells were resuspended in lysis buffer (20 mM Tris–HCl (pH 7.5), 100 mM NaCl, 1 mM DTT) supplemented with EDTA-free protease inhibitor (Roche) and lysed by sonication. The cleared lysates were incubated for 1 h with 20 μl of Protino Glutathione Agarose 4B beads (Macherey-Nagel) or amylose resin (New England Biolabs). The beads were washed three times with lysis buffer, and the bound proteins were eluted with lysis buffer containing 25 mM L-glutathione or 25 mM maltose for 15 min. The proteins were analyzed by 10–15% SDS–PAGE followed by Coomassie blue staining.

[7] = system: endogenous eIF4E and HA-tagged 4E-BPs in S2 cells; test: Immunofluorescence localization in S2 cells; assay type: cell-based, Drosophila melanogaster
Procedure: S2 cells expressing HA-tagged versions of CUP, Thor and 4E-T or the indicated mutants were treated with Leptomycin B (100 nM; Sigma) or methanol as a control for 12 h. After the LMB treatment, the cells were allowed to adhere to poly-D-lysine–coated coverslips for 15 min and were fixed with 2% paraformaldehyde for 10 min. The cells were then permeabilized with 0.1% Triton X-100 in PBS (10 min) and stained with affinity-purified monoclonal anti-HA (Covance 1:1,000) and polyclonal anti-eIF4E (1:2,000) antibodies in PBS containing 1% BSA for 1 h. Alexa Fluor 594-labeled goat anti-rabbit and 488-labeled anti-mouse antibodies (Invitrogen) were used at dilutions of 1:1,000 and 1:2,000, respectively. The cells were mounted using Fluoromount-G (Southern Biotech). The images were acquired at room temperature using a confocal microscope (TCS SP2; Leica) that was fitted with a Plan-Apochromat × 100 NA 1.40 oil immersion objective and a series of three photomultipliers (Hamamatsu Photonics) controlled with the Leica confocal software (version 2.61). The images were prepared using Photoshop (Adobe). […]
Thor) independent experiments. […] Confocal fluorescent […]
micrographs of fixed S2 cells expressing HA-4E-T and GFP-Tral. The localization of HA-4E-T was determined by indirect immunofluorescence using an anti-HA antibody. The merged pictures show the HA signal in red and the GFP-Tral signal in green. Bar: 5 μm.

Row | Molecule | Kd [1] [nM] | dH [1] [kcal/mol] | stoichiometry N [1] | Kd [2] [nM] | dH [2] [kcal/mol] | stoichiometry N [2] | half-life of the eIF4E–eIF4G complexes (tenfold molar excess of competitor) [3] [min] | time to 50% dissociation of prebound GST-eIF4G (fivefold molar excess of competitor) [3] [min] | repression of F-Luc reporter expression (in words) [4] | time to 50% dissociation of prebound GST-eIF4G (tenfold molar excess of competitor) [3] [h] | interaction with endogenous eIF4E (in words) (endogenous eIF4E) | association with eIF4E II-AA (in words) [5] | binding to eIF4E II-AA mutant (in words) [6] | nuclear accumulation of endogenous eIF4E upon LMB (in words) ([7]; S2 cells expressing 4E-BP or mutant, LMB 100 nM, 12 h) | localization of endogenous eIF4E (in words) ([7]; S2 cells overexpressing 4E-BP or mutant, −LMB) | nuclear accumulation of 4E-BP upon LMB (in words) ([7]; S2 cells, LMB 100 nM, 12 h) | localization of the 4E-BP (in words) ([7]; S2 cells, steady-state, −LMB)
1 | TKLIYERAFMKNLRGSPLSQTPPSNVPSCLLRGT (domain or fragment) [Thor C+NC peptide fused C-terminally to GB1] | 1.4 | -16.8 ± 1 | 0.95 ± 0.02 | 470 | -7.6 ± 0.3 | 0.97 ± 0.01 | 37 ± 9 |  |  |  |  |  |  |  |  |  | 
2 | RYSKVDLLALRYEGKSRQRPQCSTRLELQTLGFWKI (domain or fragment) [4E-T C+NC peptide fused C-terminally to GB1] | 5.6 | -22.8 ± 3 | 0.95 ± 0.01 | 8.8 | -12.9 ± 0.3 | 1.03 ± 0.04 |  | 22 |  |  |  |  |  |  |  |  | 
3 | B1 |  |  |  |  |  |  |  |  | inhibited the expression of the F-Luc reporter in a dose-dependent manner |  |  |  |  |  |  |  | 
4 | B2 | 9.1 | -34.5 ± 0.35 | 1.05 ± 0.02 | 50 | -18.6 ± 0.7 | 0.98 ± 0.01 |  | 2.5 ± 0.5 |  |  |  |  |  |  |  |  | 
5 | B3 | 17 | -18.5 ± 2 | 0.99 ± 0.08 | 40 | -16.24 ± 0.04 | 1.03 ± 0.01 |  |  |  | 4 |  |  |  |  |  |  | 
6 | B4 |  |  |  |  |  |  |  |  | inhibited the expression of the F-Luc reporter in a dose-dependent manner |  | interacted with endogenous eIF4E | disrupted the association | pulled down comparable amounts of WT and mutant eIF4E | endogenous eIF4E accumulated in the nucleus | evenly distributed in the cytoplasm | partial nuclear accumulation | distributed evenly throughout the cytoplasm
